Data published in US20230331827A1, “POTASSIUM CHANNEL INHIBITORS” (priority 2017, published 2023).

B1: KB_A12_ShK: ShK toxin in VL CDR2 of KB_A12, IgG1 (antibody, V domains shown)
VH: EVQLVESGGGLVRPGGSLRLSCAASGFTFSSYAMSWVRQAPGKGLEWVSAISGSGGSTYYADSVKGRFTISRDNTKNSLYLQMTSLRADDTAFYYCVKDFGPGYGTGWFDYWGPGTLVTVSS
VL: QSVLTQPPSVSEAPRQRVTITCSGSSSNIGNNAVNWYQQLPGKAPKLLIYAAGRRSCIDTIPKSRCTAFQCKHSMKYRLSFCRKTCGTCANSGVSDRFSAAKSGTSASLAINGLRSEDEADYYCAAWDDSLNGYVFGTGTKLTVLG
B2: KB_A07: EETI-II knottin fused into VL CDR2, D1A12 VH; parental KnotBody, isotype control (antibody, V domains shown)
VH: B1 VH
VL: DIQMTQSPSSLSASVGDRVTITCRASQSISSYLNWYQQKPGKAPKLLIYAAGVCPRILMRCKQDSDCLAGCVCGPNGFCGSRSGVPSRFSGSGSGTDFTLTISSLQPEDFATYYCQQGASPPYTFGQGTKVEIKRT
B3: KB_A12: EETI-II knottin fused into VL CDR2, D1A12 VH; parental KnotBody, isotype control (antibody, V domains shown)
VH: B1 VH
VL: QSVLTQPPSVSEAPRQRVTITCSGSSSNIGNNAVNWYQQLPGKAPKLLIYAAGRCPRILMRCKQDSDCLAGCVCGPNGFCGANSGVSDRFSAAKSGTSASLAINGLRSEDEADYYCAAWDDSLNGYVFGTGTKLTVLGQP

Assays:
[1] = target: T1, huKv1.3 (Homo sapiens, UniProt P22001); test: QPatch automated whole-cell patch-clamp, CHO cells stably expressing huKv1.3 (Example 8); assay type: cell-based
T1 construct: host or cells: CHO
T1 sequence (P22001 whole entry): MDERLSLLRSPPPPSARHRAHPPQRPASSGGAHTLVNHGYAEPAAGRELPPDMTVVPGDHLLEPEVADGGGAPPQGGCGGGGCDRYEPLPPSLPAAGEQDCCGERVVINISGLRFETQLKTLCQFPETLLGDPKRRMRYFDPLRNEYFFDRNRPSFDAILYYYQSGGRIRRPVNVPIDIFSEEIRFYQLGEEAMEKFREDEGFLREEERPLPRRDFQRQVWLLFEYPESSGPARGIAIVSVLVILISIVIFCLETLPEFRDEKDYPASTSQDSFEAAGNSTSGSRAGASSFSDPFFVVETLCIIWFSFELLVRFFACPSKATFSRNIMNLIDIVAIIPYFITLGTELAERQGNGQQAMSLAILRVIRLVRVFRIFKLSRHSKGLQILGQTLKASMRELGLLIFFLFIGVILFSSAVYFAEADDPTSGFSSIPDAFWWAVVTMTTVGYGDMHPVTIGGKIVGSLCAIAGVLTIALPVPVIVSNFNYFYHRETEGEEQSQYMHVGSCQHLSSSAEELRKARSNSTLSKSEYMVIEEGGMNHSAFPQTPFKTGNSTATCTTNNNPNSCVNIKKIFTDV
Description: Knottin Kv 1.3 and ASIC1a blockers expressed in the KnotBody format (see examples 6 and 7) were tested for their ability to inhibit the function of the ion channel targets. The effect of these KnotBodies on cells expressing the human Kv 1.3 (huKv1.3) or human ASIC1a channels was assessed using QPatch automated whole-cell patch-clamp electrophysiology (Sophion).
For the testing of Kv1.3, CHO cells stably expressing huKv1.3 (Charles River Lab) were analysed using the QPatch electrophysiology assay in the presence or absence of the KnotBody fusions or the antibody isotypes (negative) controls. Internal and external physiological solutions were freshly prepared prior to the assay. The extracellular solution contained 145 mM NaCl, 4 mM KCl, 2 mM CaCl2, 1 mM MgCl2, 10 mM HEPES and 10 mM glucose; the pH was adjusted to 7.4 with NaOH; the osmolarity was ~ 305 mOsm/L. The intracellular solution contained: KF (120 mM), KCl (20 mM), HEPES (10 mM) and EGTA (10 mM); the pH was adjusted to 7.2 with KOH; osmolarity was ~ 320 mOsm/L.
A series of depolarising voltage (channel activating) pulses were used to monitor the channel currents upon adding control (extracellular solution) to define a control baseline of current activity. To these measured control currents ascending concentrations of KnotBodies or parental antibody isotypes (control molecules) were applied to the external bathing solution (2.2 µM - 0.5 nM, diluted in the extracellular solution). KnotBodies KB_A12 and KB_A07 (EETI-II fusions) were used as isotype controls for the testing. From a holding voltage of -80 mV a depolarising, activating voltage pulses of +30 or +80 mV were applied for 300 ms, every 5 or 10 seconds. The elicited, maximum outward current values measured during the activating step for each solution exchange period were averaged (n = 3 - 8 for each concentration applied) and plotted as concentration-response curves. KB_A07_ShK, KB_A12_ShK and KB_A07_Kaliotoxin (KTX) fusion proteins all inhibited the huKv1.3 currents in a concentration dependent manner with IC50S of approximately 20 nM, 40 nM and 900 nM respectively.

[2] = target: LOX-1 (Homo sapiens, UniProt P78380); test: Phage TRF binding assay on LOX-1; conditions: phage displayed, FIG. 19
Description: In order to test the functionality of these adhiron-antibody fusions, monoclonal phage prepared from each clone was assessed for binding to LOX-1 in a TRF binding assay. In this assay, LOX-1 (immobilised directly on Maxisorp™ plates) binding of phage displaying adhiron-antibody fusion was detected using a mouse anti-M13 antibody (GE Healthcare) followed by europium conjugated anti-mouse antibody (Perkin Elmer). Parent KnotBodies KB_A07 and KB_A12 (EETI-II fusions) were included as controls. Proteins cMET-FC, GAS6-CD4, FGFR4-CD4, UPA and B-gal were used to examine non-specific binding.

[3] = system: trypsin; test: KnotBody Fab TRF binding assay on biotinylated trypsin; conditions: for TRF signal for 0.6 ug/mL Fab: Fab 0.6 ug/mL; for TRF signal for 2.4 ug/mL Fab: Fab 2.4 ug/mL; for TRF signal for 10 ug/mL Fab: Fab 10 ug/mL
Description: In order to confirm the trypsin binding ability of KnotBodies in Fab format, purified proteins were tested for binding to trypsin using a TRF binding assay. In this assay binding of KnotBody Fabs ([…]) to biotinylated trypsin (immobilised on streptavidin coated Maxisorp™ plates) was detected using a mouse anti-CH1 antibody followed by a europium conjugated anti-mouse antibody (Table 4). 7 KnotBodies (KB_A04, KB_A01, KB_A05, KB_A07, KB_A08, KB_A10, KB_A12) were chosen for crystallisation. DNA prepared for these clones were transfected into 500 ml HEK-293F cells as described before. Expressed proteins were purified using CaptureSelect IgG-CH1 affinity matrix. Purified proteins were initially subjected to crystallisation trials using commercially available crystallisation screens (Supplier). Well-defined crystals were readily obtained for KB_A12 and KB_A05. Crystallisation conditions for these two clones were further optimised and the following condition was used to generate diffraction quality crystals: 0.1 M MES pH=6.5, 25 %w/v PEG MME 2000 and 0.1 M Tris.Cl, 50% PEG MME, 10 mM NiCl2. Complete diffraction data was collected on these crystals at 100 K under liquid nitrogen stream. Collected data was processed using PROTEUM2 software (Bruker). The crystal structure of the knottin-fused Fab antibodies was resolved using molecular replacement technique^109 using Phenix software v 1.8.1-1168^110. Resulting structure was further refined using Phenix.Refine^111. The templates for molecular replacement were downloaded from PDB website (www.rcsb.org/pdb, PDB codes: 3G04 for light chain and 3QOS for heavy chain). KnotBody KB_A12 and KB_A05 sequences are given below. An additional AlaSer sequence is introduced at the N terminus of the light chain from the Nhe1 site used in cloning.
In order to compare the performance of the KnotBodies with short and long linkers, purified Fabs were tested for binding to trypsin by ELISA. In this assay binding of KnotBody Fabs (at 0.5 µg/ml) to biotinylated trypsin (5 µg/ml immobilised on streptavidin coated Maxisorp™ plates) was detected using a mouse anti-CH1 antibody (Hybridoma Reagent Laboratories) followed by a europium conjugated anti-mouse antibody (Perkin Elmer, Cat. No. AD0124). The trypsin binding capability of KB_A07 and KB_A12 KnotBodies were greatly diminished when the short selected linkers were replaced with long and flexible linkers (FIG. 22).

[4] = Kv1.3 channels, IgG KnotBody, Table 11A

| Molecule | IC50 [1, 4] [nM] | IC50 ([1]; huKv1.3 currents, text of Example 8, approximately) [nM] | binding to LOX-1 [2] | TRF signal for 0.6 ug/mL Fab [3] | TRF signal for 2.4 ug/mL Fab [3] | TRF signal for 10 ug/mL Fab [3] |
| --- | --- | --- | --- | --- | --- | --- |
| B1 | 20 | ~40 |  |  |  |  |
| B2 | > 10000 |  | no detectable binding to the LOX-1 | 107814 | 201003 | 226082 |
| B3 | > 10000 |  | no detectable binding to the LOX-1 | 102132 | 221989 | 252832 |
